Laboratory results from patent US20240390512A1 (Daiichi Sankyo, published 2024).

T1: cynomolgus monkey CDH6, on cells (cynomolgus monkey, UniProt P55285 54-790 (human entry))
T1 construct: Expressed from pcDNA3.1-cynoCDH6; also called cynoCDH6
T1 sequence: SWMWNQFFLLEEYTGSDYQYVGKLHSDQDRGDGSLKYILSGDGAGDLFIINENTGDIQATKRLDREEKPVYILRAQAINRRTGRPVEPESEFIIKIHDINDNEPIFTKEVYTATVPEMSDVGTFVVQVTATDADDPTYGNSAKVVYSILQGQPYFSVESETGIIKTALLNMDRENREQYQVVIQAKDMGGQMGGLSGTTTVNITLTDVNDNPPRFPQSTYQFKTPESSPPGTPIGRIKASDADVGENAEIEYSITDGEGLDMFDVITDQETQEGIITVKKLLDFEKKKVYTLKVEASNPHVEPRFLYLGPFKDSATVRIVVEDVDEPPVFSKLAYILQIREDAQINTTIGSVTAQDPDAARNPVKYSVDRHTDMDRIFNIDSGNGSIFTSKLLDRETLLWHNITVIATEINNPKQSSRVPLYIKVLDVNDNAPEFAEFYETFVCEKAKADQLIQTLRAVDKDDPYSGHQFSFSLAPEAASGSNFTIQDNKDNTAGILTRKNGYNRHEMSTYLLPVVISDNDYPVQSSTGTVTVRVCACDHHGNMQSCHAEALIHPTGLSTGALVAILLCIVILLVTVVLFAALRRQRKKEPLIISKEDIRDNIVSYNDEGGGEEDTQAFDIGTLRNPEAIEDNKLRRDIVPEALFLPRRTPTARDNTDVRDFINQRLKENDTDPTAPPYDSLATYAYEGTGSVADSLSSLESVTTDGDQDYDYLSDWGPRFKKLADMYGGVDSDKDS

T2: human CDH6 (cadherin-6), full-length, on cells (human, UniProt P55285 54-790)
T2 construct: also called hCDH6; full-length hCDH6
T2 sequence: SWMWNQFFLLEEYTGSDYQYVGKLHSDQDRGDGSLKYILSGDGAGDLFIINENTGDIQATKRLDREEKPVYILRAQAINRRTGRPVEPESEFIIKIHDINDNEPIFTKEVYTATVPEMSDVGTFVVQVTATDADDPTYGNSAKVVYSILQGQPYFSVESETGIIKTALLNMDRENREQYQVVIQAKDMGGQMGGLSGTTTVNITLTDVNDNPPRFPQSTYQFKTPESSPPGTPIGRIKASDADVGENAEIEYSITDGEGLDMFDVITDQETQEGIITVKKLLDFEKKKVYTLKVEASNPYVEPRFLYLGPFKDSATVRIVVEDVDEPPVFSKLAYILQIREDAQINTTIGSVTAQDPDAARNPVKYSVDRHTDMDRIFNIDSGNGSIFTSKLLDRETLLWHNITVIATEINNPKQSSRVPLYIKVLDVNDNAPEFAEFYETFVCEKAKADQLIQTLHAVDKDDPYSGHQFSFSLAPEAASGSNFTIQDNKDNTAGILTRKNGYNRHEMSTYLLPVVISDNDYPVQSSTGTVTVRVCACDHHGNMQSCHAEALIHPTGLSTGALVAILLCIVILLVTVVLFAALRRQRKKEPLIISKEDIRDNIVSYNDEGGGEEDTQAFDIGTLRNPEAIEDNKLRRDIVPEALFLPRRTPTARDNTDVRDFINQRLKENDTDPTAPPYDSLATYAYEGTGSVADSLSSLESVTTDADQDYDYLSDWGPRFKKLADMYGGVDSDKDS

T3: EC3 deletion mutant of human CDH6, on cells (human, UniProt P55285 54-790)
T3 construct: in p3×FLAG-CMV-9; also called EC3-deleted hCDH6
T3 sequence: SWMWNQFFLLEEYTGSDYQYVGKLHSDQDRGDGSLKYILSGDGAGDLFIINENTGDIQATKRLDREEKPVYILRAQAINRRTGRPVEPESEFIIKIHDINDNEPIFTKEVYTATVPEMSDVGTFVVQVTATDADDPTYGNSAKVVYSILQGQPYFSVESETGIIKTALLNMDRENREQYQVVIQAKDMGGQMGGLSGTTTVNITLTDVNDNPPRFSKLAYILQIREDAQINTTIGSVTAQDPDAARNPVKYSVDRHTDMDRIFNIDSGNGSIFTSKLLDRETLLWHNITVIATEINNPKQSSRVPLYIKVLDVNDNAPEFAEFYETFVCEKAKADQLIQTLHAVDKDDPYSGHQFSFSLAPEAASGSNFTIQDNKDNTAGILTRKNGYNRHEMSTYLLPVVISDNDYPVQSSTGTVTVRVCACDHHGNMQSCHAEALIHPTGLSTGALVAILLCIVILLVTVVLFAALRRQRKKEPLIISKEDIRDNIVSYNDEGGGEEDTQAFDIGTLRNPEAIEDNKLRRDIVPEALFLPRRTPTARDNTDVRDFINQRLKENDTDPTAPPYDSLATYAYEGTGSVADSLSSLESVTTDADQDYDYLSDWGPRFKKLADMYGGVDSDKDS


Key:
[1] = biological target: T1, cynomolgus monkey CDH6, on cells; test: Cell-ELISA and flow cytometry screening with hybridoma supernatants on transfected cells
[2] = biological target: T2, human CDH6 (cadherin-6), full-length, …; test: flow cytometry; hCDH6-transfected 293T cells (open line) against untransfected 293T cells (shaded); antibody 10 ng/mL; anti-rat IgG-FITC
[3] = biological target: T3, EC3 deletion mutant of human CDH6, on …; test: flow cytometry; 293α cells transfected with EC3-deleted hCDH6 (open line) against untransfected 293α cells (shaded); anti-rat IgG-FITC

binding result [1] | binding result [2] | binding result [3] | Binder
binds | binds | no binding (tested: 20 nM) | rat anti-human CDH6 monoclonal antibody rG056 (antibody, rat IgG2b, V domains shown, Purified from hybridoma supernatant; also called rG056 antibody) VH: EVQLQESGPGLVKPSQSLSLTCSVTDYSITTYFWGWIRKFPGNKMEWMGYMSYRGGTSYNPSLKSRISITRDTSKNQFFLQLNSVTTEDTATYYCARCPNYGGHSLVFDYWGQGVMVTVSS VL: DVQMTQSPSSLAASPGESVSISCRATKSIGIYLAWYQQKPGKTFKLLIYSGSTLQSGTPSRFSGSGSGTDFTLTIRSLEPEDFGLYFCQQFYENPFTFGSGTKLEIRR
binds | binds | no binding (tested: 20 nM) | rat anti-human CDH6 monoclonal antibody rG055 (antibody, rat IgG2b, V domains shown, Purified from hybridoma supernatant; also called rG055 antibody) VH: EVQLQESGPGLVRPSQSLSLSCSVTDYSITSNYWGWIRRFPGNKMEWMGYITYSGYTSYNPSLQSRISITRDTSKNQFFLQLNSVTAEDTATYYCARSINHGGYSYVVDAWGPGASVTVSS VL: DVQMTHSPSYLAASPGESVSISCKTSKNISNYLVWYQQKPGEAYKLLIYSGSTLQSGTPSRFSGSGSGTDFTLTIRSLEPEDFGLYFCQQYYEKPFTFGSGTKLEIKR
binds | binds | no binding (tested: 20 nM) | rat anti-human CDH6 monoclonal antibody rG061 (antibody, rat IgG2b, V domains shown, Purified from hybridoma supernatant; also called rG061 antibody) VH: EVQLQESGPGLVKPSQSLSLTCSVTGYSITTYYWGWIRKFPGNKMEWMGYISYSGRTSYNPSLKSRMSITRDASKNQFFLQLNSVTTDDTATYYCARSPINHGGYWYFDFWGPGTMVTVSS VL: DVQMTQSPSYLAASPGESVSISCKATKSISNYLAWYQQKPGEAYKVLIYSGSTLQSGTPSRFSGSGSGTDFTLTIRSLEPEDFGLYSCQQYYEKPLTFGSGTKLEIKR
binds | binds | no binding (tested: 20 nM) | rat anti-human CDH6 monoclonal antibody rG019 (antibody, rat IgG2b, V domains shown, Purified from hybridoma supernatant; also called rG019 antibody) VH: QVQLQQSGAELVKPGSSVKISCKASGYTFTRNFMHWIKQQPGNGLEWIGWIYCGDGETEYNQKFNGKATLTADRSSSTAYMELSRLTSEDSAVYFCARGVYGGFAGGYFDFWGQGVMVTVSS VL: DIQMTQSPSLLSASVGDRVTLNCKASQNIYKNLAWYQQKLGEGPKLLIYDANTLQTGIPSRFSGSGSGSDFTLTISSLQPEDVATYFCQQYYSGWAFGGVTNLELKRA
